Measured values from patent US20220347265.

Target: C3b (Complement Technology, Cat #A114), labeled with ANS (UniProt P01024)
Sequence of UniProt P01024 (P01024 whole entry, looked up): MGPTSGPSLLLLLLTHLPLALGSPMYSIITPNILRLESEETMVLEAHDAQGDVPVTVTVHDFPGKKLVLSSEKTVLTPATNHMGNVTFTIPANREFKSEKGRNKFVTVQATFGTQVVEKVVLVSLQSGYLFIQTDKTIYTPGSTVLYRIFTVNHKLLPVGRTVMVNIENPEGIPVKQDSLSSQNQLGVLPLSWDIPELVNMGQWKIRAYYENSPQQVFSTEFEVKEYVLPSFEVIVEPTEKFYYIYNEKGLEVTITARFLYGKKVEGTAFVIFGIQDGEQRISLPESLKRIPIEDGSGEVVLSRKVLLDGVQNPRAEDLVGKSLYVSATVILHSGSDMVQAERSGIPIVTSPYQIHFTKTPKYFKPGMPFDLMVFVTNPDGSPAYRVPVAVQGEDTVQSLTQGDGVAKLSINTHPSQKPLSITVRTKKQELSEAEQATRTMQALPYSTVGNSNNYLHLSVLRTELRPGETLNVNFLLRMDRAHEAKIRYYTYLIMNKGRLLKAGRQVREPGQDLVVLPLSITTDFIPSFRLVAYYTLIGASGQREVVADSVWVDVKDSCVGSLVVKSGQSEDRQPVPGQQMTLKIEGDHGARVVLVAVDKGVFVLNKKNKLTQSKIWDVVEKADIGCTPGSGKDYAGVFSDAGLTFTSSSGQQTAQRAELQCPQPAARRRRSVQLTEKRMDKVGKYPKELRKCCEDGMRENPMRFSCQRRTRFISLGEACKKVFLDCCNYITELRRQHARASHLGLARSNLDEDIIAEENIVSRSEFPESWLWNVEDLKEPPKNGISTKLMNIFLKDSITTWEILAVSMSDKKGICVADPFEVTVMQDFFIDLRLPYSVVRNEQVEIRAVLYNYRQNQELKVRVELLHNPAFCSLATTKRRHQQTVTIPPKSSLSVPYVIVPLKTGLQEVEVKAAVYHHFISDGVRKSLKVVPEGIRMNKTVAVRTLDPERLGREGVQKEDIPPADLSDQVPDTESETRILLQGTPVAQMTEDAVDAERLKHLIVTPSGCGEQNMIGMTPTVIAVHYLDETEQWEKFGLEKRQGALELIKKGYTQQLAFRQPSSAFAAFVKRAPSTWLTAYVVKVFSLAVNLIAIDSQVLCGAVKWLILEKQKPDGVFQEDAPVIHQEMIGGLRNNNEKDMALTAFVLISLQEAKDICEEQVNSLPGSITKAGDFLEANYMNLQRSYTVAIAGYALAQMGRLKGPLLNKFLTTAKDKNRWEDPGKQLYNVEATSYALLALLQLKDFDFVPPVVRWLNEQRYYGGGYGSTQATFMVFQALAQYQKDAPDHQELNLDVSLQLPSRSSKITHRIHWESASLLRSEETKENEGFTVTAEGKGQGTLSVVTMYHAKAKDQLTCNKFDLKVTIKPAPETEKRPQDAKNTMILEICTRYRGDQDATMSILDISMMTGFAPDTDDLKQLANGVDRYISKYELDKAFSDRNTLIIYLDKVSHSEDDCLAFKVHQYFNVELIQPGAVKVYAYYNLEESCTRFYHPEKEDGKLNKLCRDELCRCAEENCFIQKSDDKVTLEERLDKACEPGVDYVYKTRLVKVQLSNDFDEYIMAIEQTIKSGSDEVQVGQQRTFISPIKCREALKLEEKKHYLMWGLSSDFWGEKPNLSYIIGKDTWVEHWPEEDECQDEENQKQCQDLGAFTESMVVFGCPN

How did the “fluorescence cofactor assay: cleavage of ANS-labeled C3b to iC3b (change in RFUs over time), with cofactor CFH, MCP or CR1, against wild type CFI” value turn out when A240G CFI protein was run?
The value was “certain CFI mutations (G119R, A240G, and P553S) were associated with greatly reduced CFI protein function”.

Which “fluorescence cofactor assay: cleavage of ANS-labeled C3b to iC3b (change in RFUs over time), with cofactor CFH, MCP or CR1, against wild type CFI” value does the source give for A300T CFI protein here?
The value was “the A300T mutation appeared to have relatively little impact on CFI function”.

Which “fluorescence cofactor assay: cleavage of ANS-labeled C3b to iC3b (change in RFUs over time), with cofactor CFH, MCP or CR1, against wild type CFI” value does the source give for G119R CFI protein here?
Its value is “certain CFI mutations (G119R, A240G, and P553S) were associated with greatly reduced CFI protein function”.

How did the “fluorescence cofactor assay: cleavage of ANS-labeled C3b to iC3b (change in RFUs over time), with cofactor CFH, MCP or CR1, against wild type CFI” value turn out when P553S CFI protein was run?
Its value is “certain CFI mutations (G119R, A240G, and P553S) were associated with greatly reduced CFI protein function”.
